{
  "source": "patent US7316915",
  "about": "(TANOX, dated 2008)",
  "key": {"[1]": {"molecular_target": "T1, Bak (expressed in yeast, used as lysate) (Homo sapiens (Human), UniProt Q16611 1-211, limits assumed)", "T1 construct": "also called full-length Bak", "T1 sequence": "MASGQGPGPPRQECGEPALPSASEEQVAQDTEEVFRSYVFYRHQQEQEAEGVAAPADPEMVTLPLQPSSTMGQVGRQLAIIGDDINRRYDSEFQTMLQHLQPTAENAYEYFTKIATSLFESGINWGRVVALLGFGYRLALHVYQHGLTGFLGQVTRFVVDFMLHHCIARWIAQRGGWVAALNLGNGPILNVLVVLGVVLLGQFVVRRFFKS", "assay": "GST fusion on glutathione-Sepharose column, yeast lysate expressing Bak, Western blot"}, "[2]": {"molecular_target": "T2, BakΔ3 (N-terminal deletion mutant of Bak, amino acids 96-210 of full-length Bak) (Homo sapiens (Human), UniProt Q16611 96-211)", "T2 construct": "Produced in Sf9 cells by baculovirus and used as an NP-40 cell extract", "T2 sequence": "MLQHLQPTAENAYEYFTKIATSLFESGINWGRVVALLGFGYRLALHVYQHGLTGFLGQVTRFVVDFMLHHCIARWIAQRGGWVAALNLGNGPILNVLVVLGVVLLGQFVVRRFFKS", "assay": "GST pull-down from Sf9 extract, immunoblot with anti-Bak"}, "[3]": {"molecular_target": "T3, Bak expressed as a fusion protein with the binding domain (BD) of GAL4 (yeast, UniProt P04386 1-147)", "T3 construct": "range 1-147; Yeast two-hybrid bait; also called GAL4-Bak fusion protein", "assay": "yeast two hybrid (GAL4 AD and BD fusions)"}, "[4]": {"molecular_target": "T4, BBP expressed as a fusion protein with the binding domain (BD) of GAL4 (yeast; human, UniProt P04386 1-147)", "T4 construct": "range 1-147; also called BBP-BD", "assay": "yeast two hybrid (GAL4 AD and BD fusions)"}, "[5]": {"molecular_target": "Bax expressed as a fusion protein with the binding domain (BD) of GAL4 (yeast, UniProt P04386 1-147; Q07812 1-192, limits assumed)", "assay": "yeast two hybrid"}, "[6]": {"molecular_target": "Bcl2 expressed as a fusion protein with the binding domain (BD) of GAL4 (yeast, UniProt P04386 1-147; P10415 1-239, limits assumed)", "assay": "yeast two hybrid"}},
  "note": "Where no end group is shown, it is not given here.",
  "data": [
    {"binder": "gst fusion protein containing full-length BHRF-1 (other, not shown: glutathione-S-transferase (gst)) MAYSTREILLALCIRDSRVHGNGTLHPVLELAARETPLRLSPEDTVVLRYHVLLEEIIERNSETFTETWNRFITHTEHVDLDFNSVFLEIFHRGDPSLGRALAWMAWCMHACRTLCCNQSTPYYVVDLSVRGMLEASEGLDGWIHQQGGWSTLIEDNIPGSRRFSWTLFLAGLTLSLLVICSYLFISRGRH", "values": [
      {"measurement": "binding result", "setting": "[1]", "value": "binds"}
    ]},
    {"binder": "HTGYIKVDWQRVEKDMKKAKEQLKIRKSNQIPTEVRSKAEEVVSFVKK (other, not fully specified (N-terminus); also: fused to glutathione-S-transferase (GST), not in chain, It was subcloned into pGEX-5X in frame with gst; also called BBP-L2; gst-BBP-L2; not shown: glutathione-S-transferase (gst) as encoded by vector pGEX-5X (Pharmacia))", "note": "[gst fusion protein containing BBP-Loop2 (internal loop of BBP, amino acids 86 through 133)]", "values": [
      {"measurement": "binding result", "setting": "[2]", "value": "no binding"},
      {"measurement": "binding result", "setting": "[1]", "value": "binds"}
    ]},
    {"binder": "BBP expressed as a fusion protein with the activation domain (AD) of GAL4 (other, yeast, range 768-881; Yeast two-hybrid prey; also called BBP-AD) ANFNQSGNIADSSLSFTFTNSSNGPNLITTQTNSQALSQPIASSNVHDNFMNNEITASKIDDGNNSKPLSPGWTDQTAYNAFGITTGMFNTTTMDDVYNYLFDDEDTPPNPKKEMAASSQGNFEGNFESLDLAEFAKKQPWWRKLFGQESGPSAEKYSVATQLFIGGVTGWCTGFIFQKVGKLAATAVGGGFFLLQLANHTGYIKVDWQRVEKDMKKAKEQLKIRKSNQIPTEVRSKAEEVVSFVKKNVLVTGGFFGGFLLGMAS", "values": [
      {"measurement": "binding result", "setting": "[3]", "value": "binds"},
      {"measurement": "binding result", "setting": "[4]", "value": "binds"},
      {"measurement": "binding result", "setting": "[5]", "value": "no binding"},
      {"measurement": "binding result", "setting": "[6]", "value": "no binding"}
    ]},
    {"binder": "MAASSQGNFEGNFESLDLAEFAKKQPWWRKLFGQESGPSAEK (other, not fully specified (N-terminus); also: fused to glutathione-S-transferase (GST), not in chain, It was subcloned into pGEX-5X in frame with gst; also called BBP-L1; gst-BBP-L1; not shown: glutathione-S-transferase (gst) as encoded by vector pGEX-5X (Pharmacia))", "note": "[gst fusion protein containing BBP-Loop1 (N-terminal 42 amino acid portion of BBP)]", "values": [
      {"measurement": "binding result", "setting": "[1]", "value": "binds"}
    ]}
  ]
}
